Measurements reported in PMC5292662, “PKU mutation p.G46S prevents the stereospecific binding of L‐phenylalanine to the dimer of human phenylalanine hydroxylase regulatory domain” (FEBS Open Bio, 2017).
Where a chain is given by its changes, count along the chain named. In names and notes the source's numbering stands.

B1: wt‐MBP‐(pep)Xa‐hPAH‐RD^1–120 fusion protein (domain or fragment, human, UniProt P00439 1-120, looked up)
chain: MSTAVLENPGLGRKLSDFGQETSYIEDNCNQNGAISLIFSLKEEVGALAKVLRLFEENDVNLTHIESRPSRLKKDEYEFFTHLDKRSLPALTNIIKILRHDIGATVHELSRDKKKDTVPW
notes: N-terminal regulatory domain (RD) of human phenylalanine hydroxylase (hPAH), residues 1-120 (stop signal introduced in codon 121), SwissProt P00439; From pMAL‐hPAH‐RD^1–120 (pMAL-c2 vector); a factor Xa cleavage peptide (pep)Xa lies between MBP and the RD; Isolated by SEC as a dimeric and a monomeric fraction; also called MBP‐hPAH‐RD^1–120; wt‐MBP‐hPAH‐RD; source: E. coli, purified (amylose …)
B2: MBP‐hPAH‐G46S‐RD^1–120 fusion protein (domain or fragment, human, UniProt P00439 1-120, looked up)
chain: B1 chain with G46S
notes: From pMAL‐hPAH‐G46S‐RD^1–120; a factor Xa cleavage peptide lies between MBP and the RD; G46S is a mutation found in patients with phenylketonuria; also called hPAH‐G46S‐RD^1–120 dimer fusion protein; source: E. coli, purified (amylose resin, SEC); not shown: MBP, N-terminal, kept

Target: the molecule itself
Assay: SEC; HiLoad Superdex 200 HR column (1.6 cm × 60 cm), 20 mM Na‐Hepes, 0.2 M NaCl, pH 7.0, 0.38 mL·min^−1, 4 °C; masses estimated from standard markers; dimer to monomers

| Protein | stoichiometry N |
| --- | --- |
| B1 | 2 |
| B2 | 2 |
